The data set concerns the molecule itself. Description: SEC + other: mass photometry; recombinant CHIP run on size-exclusion chromatography, fractions analysed by mass photometry at 30 nM in 20 mM Hepes pH 8, 200 mM NaCl, 1 mM DTT.

B1: CHIP A52G point mutant, recombinant (enzyme, human, UniProt Q9UNE7 1-303, looked up)
chain: MKGKEEKEGGARLGAGGGSPEKSPSAQELKEQGNRLFVGRKYPEAAACYGRGITRNPLVAVYYTNRALCYLKMQQHEQALADCRRALELDGQSVKAHFFLGQCQLEMESYDEAIANLQRAYSLAKEQRLNFGDDIPSALRIAKKKRWNSIEERRIHQESELHSYLSRLIAAERERELEECQRNHEGDEDDSHVRAQQACIEAKHDKYMADMDELFSQVDEKRKKRDIPDYLCGKISFELMREPCITPSGITYDRKDIEEHLQRVGHFDPVTRSPLTQEQLIPNLAMKEVIDAFISENGWVEDY
notes: CHIP (STUB1 product) with the patient's de novo A52G mutation (c.155C > G), introduced by QuikChange into the pGEX6p-1 construct; Mutation found in a patient with SCA48; also called A52G mutant; source: E. coli, purified
Regarding B1, the binding result is on record as “binds”.

The record behind these values is publication PMC9097460, “The molecular basis of spinocerebellar ataxia type 48 caused by a de novo mutation in the ubiquitin ligase CHIP” (The Journal of Biological Chemistry, 2022).
